Results: paper PMC6472337, “L amino acid transporter structure and molecular bases for the asymmetry of substrate interaction” (Nature Communications, 2019)

What was measured:
[1] = tested on: BasC wild-type; experiment: [3H]L-alanine transport (influx, efflux, exchange) in BasC proteoliposomes; type: biochemical, Carnobacterium sp AT7; settings: for 10 μM [3H]L-alanine exchange into BasC PLs containing 4 mM of the indicated compound: 4 mM compound inside PLs, n=1-3 and mean
Method: BasC-GFP protein was reconstituted in E. coli polar lipids (Sigma-Aldrich, Madrid, Spain), as previously described. Lipids were dried under N2 and suspended in reconstitution buffer (20 mM Tris-Base, 150 mM NaCl, pH 7.4). The suspension was sonicated to clarity and purified BasC protein was added to reach the desired protein to lipid ratio of 1:100 (w:w). To destabilize the liposomes, 1.25% ß-D-octylglucoside was added and the mixture was incubated on ice with occasional agitation for 5 min. DDM and ß-D-octylglucoside were removed by dialysis for 40 h at 4 °C against 100 volumes of dialysis buffer. Proteoliposome (PL) suspensions were frozen in liquid N2 and stored at −80 °C until use.
For uptake experiments, the desired intraliposomal amino acid concentration was added to the PL suspension, which was then subjected to three freeze/thaw cycles. The extraliposomal amino acid content was then removed by ultracentrifugation (100,000 × g for 1 h at 4 °C) and PLs were resuspended to one-third of the initial volume with reconstitution buffer. Amino acid uptake assays were initiated after mixing 10 μl of cold PLs with 180 μl of transport buffer (20 mM Tris-Base, 150 mM NaCl, pH 7.4 plus 0.5–1 µCi/180 µl of radiolabeled L-amino acid (Perkin Elmer, Waltham, MA)) supplemented with the unlabeled amino acid to the desired concentration. This mixture was then incubated at room temperature for the indicated periods. […] Filters were then washed twice with 2 ml of stop buffer and dried, and the trapped radioactivity was counted. Transport measured in PLs containing no amino acid was subtracted from each data point to calculate the net exchange. […] BasC protein in PLs was determined by Coomassie blue staining in SDS-PAGE gels compared with known amounts of BasC in DDM micelles, determined by BCA assay (Pierce, Rockford, IL) and loaded in the same gel.

[2] = tested on: AdiC; design: method as in PMID 22304019; settings: cited from earlier work
[3] = target: T1, bacterial alanine-serine-cysteine exchanger (BasC), wild-type, purified for crystallography (Carnobacterium sp. AT7); experiment: crystal structure; BasC incubated with Nb74 at 1:1.2, complex purified by SEC in 0.17% DM; sitting-drop vapor diffusion at 4 °C, 27–29% PEG 400, 0.1 M ammonium acetate pH 8; apo (2.9 Å) and with 100 mM 2-AIB (3.4 Å); settings: both partners purified
T1 construct: BasC, bacterial alanine-serine-cysteine exchanger, a prokaryotic L-type amino acid transporter (LAT); In the transport assays (functional rows) BasC stood as uncleaved BasC-GFP reconstituted in E. coli polar lipid proteoliposomes; also called WT; source: E. coli BL21 Star (DE3), purified in DM (Ni2+-NTA, on-column HRV-3C cleavage); not shown: GFP, C-terminal, cleaved
T1 chain: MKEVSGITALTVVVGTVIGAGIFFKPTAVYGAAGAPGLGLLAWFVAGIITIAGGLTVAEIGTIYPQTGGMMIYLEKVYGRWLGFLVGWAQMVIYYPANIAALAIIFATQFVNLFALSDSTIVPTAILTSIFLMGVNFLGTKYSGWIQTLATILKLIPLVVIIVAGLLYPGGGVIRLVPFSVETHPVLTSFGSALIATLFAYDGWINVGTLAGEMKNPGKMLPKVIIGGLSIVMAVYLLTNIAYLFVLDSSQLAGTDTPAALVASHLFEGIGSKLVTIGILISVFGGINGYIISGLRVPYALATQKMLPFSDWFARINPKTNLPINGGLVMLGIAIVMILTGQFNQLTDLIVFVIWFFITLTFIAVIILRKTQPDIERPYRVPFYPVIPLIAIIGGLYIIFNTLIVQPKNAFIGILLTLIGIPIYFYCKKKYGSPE

[4] = target: BasC; experiment: Surface plasmon resonance of Nb74-BasC interaction; type: binding, Carnobacterium sp AT7; settings: read-out: KD (affinity of Nb74 for BasC)
Method: Surface plasmon resonance (Biacore T-100, GE Healthcare, Chicago, IL) was used to screen 29 Nbs (one from each family) for binding with BasC, purified as for crystallography. […] BasC was assayed at 500–2.5 nM in running buffer. […] The BasC-Nb74 complex rendered the best results initially and consequently crystals were optimized.

[5] = target: T1, bacterial alanine-serine-cysteine …; experiment: SPR; Biacore T-100; nanobody captured (around 200 RU) on a CM5 chip coated with anti-His antibody; BasC flowed at 500–2.5 nM; running buffer phosphate buffered saline, 0.17% DM; settings: both partners purified
[6] = substrate: C[C@H](N)C(=O)O; experiment: cells, lysate or membranes; settings: other: L-alanine uptake, pH 7.4, 37.0 °C
[7] = 5 µM Nb74 in medium, exchange with 4 mM L-alanine, NT = 100, n=1-6 and mean

## NCCCC(=O)O [GABA, γ-aminobutyrate]
[1]
  10 μM [3H]L-alanine exchange into BasC PLs containing 4 mM of the indicated compound: not a substrate

## CC(C)(N)C(=O)O [2-AIB, 2-aminoisobutyric acid]
[1]; 2-AIB as intraliposomal substrate, read-out: intracellular Km
  Km: 34.5 ± 10 mM
[1]; higher than L-alanine Km
  intracellular Km relative to L-alanine Km: ~ 10 fold

## CCN [Ethylamine, ethylamine]
[1]; listed as ethylamine
  10 μM [3H]L-alanine exchange into BasC PLs containing 4 mM of the indicated compound: not significant

## N=C(N)NCCC[C@H](N)C(=O)O [arginine]
[2]
  intracellular apparent Km value compared to the extracellular one: two-fold higher

## NCCCCN=C(N)N [agmatine]
[2]
  intracellular apparent Km value compared to the extracellular one: two-fold higher

## CC(=O)O [Acetate]
[1]
  10 μM [3H]L-alanine exchange into BasC PLs containing 4 mM of the indicated compound: not significant

B1: anti-BasC nanobody 74 (Nb74) (VHH)
VHH: QVQLVESGGGVVQAGGSLRLSCAASGRTFSSRAMGWFRQAPGEGREFVATISWSGSYTEYADSVKGRVTISRDNAKNTVYLQMNSLKPGDTAVYHCAAKNGGAASNYPNDYVYWGQGTQVTVSS
notes: nanobody from a llama immunised with BasC proteoliposomes, selected by phage display (vector pMESy4); Captured by its His tag on an anti-His antibody in the SPR experiment
[1]; [7]
  Efflux of 10 µM [3H]L-alanine, normalized to non-treated PLs: 9.14
  Influx of 10 µM [3H]L-alanine, normalized to non-treated PLs: 105.77
[1]; read-out: IC50 of 10 µM [3H]L-alanine efflux, efflux in exchange with 4 mM L-alanine, Nb74 in PL medium
  IC50: ~300 nM
[3]
  stoichiometry N: 1
[4]
  Kd: 3.87 nM
[5]
  Kd: 3.9 ± 1.4 nM

B2: human Asc-1 (hAsc-1) wild-type (Homo sapiens) (protein)
chain: MAGHTQQPSGRGNPRPAPSPSPVPGTVPGASERVALKKEIGLLSACTIIIGNIIGSGIFISPKGVLEHSGSVGLALFVWVLGGGVTALGSLCYAELGVAIPKSGGDYAYVTEIFGGLAGFLLLWSAVLIMYPTSLAVISMTFSNYVLQPVFPNCIPPTTASRVLSMACLMLLTWVNSSSVRWATRIQDMFTGGKLLALSLIIGVGLLQIFQGHFEELRPSNAFAFWMTPSVGHLALAFLQGSFAFSGWNFLNYVTEEMVDARKNLPRAIFISIPLVTFVYTFTNIAYFTAMSPQELLSSNAVAVTFGEKLLGYFSWVMPVSVALSTFGGINGYLFTYSRLCFSGAREGHLPSLLAMIHVRHCTPIPALLVCCGATAVIMLVGDTYTLINYVSFINYLCYGVTILGLLLLRWRRPALHRPIKVNLLIPVAYLVFWAFLLVFSFISEPMVCGVGVIIILTGVPIFFLGVFWRSKPKCVHRLTESMTHWGQELCFVVYPQDAPEEEENGPCPPSLLPATDKPSKPQ
[6]; wild-type hAsc-1, HeLa cells
  Km: 0.0675 ± 0.0042 mM
  Vmax: 1703 ± 425 pmols µg protein^−1 min^−1

B3: hAsc-1 K194A mutant (Homo sapiens; K194A) (protein)
chain: MAGHTQQPSGRGNPRPAPSPSPVPGTVPGASERVALKKEIGLLSACTIIIGNIIGSGIFISPKGVLEHSGSVGLALFVWVLGGGVTALGSLCYAELGVAIPKSGGDYAYVTEIFGGLAGFLLLWSAVLIMYPTSLAVISMTFSNYVLQPVFPNCIPPTTASRVLSMACLMLLTWVNSSSVRWATRIQDMFTGGALLALSLIIGVGLLQIFQGHFEELRPSNAFAFWMTPSVGHLALAFLQGSFAFSGWNFLNYVTEEMVDARKNLPRAIFISIPLVTFVYTFTNIAYFTAMSPQELLSSNAVAVTFGEKLLGYFSWVMPVSVALSTFGGINGYLFTYSRLCFSGAREGHLPSLLAMIHVRHCTPIPALLVCCGATAVIMLVGDTYTLINYVSFINYLCYGVTILGLLLLRWRRPALHRPIKVNLLIPVAYLVFWAFLLVFSFISEPMVCGVGVIIILTGVPIFFLGVFWRSKPKCVHRLTESMTHWGQELCFVVYPQDAPEEEENGPCPPSLLPATDKPSKPQ
[6]; K194A hAsc-1, HeLa cells
  Km: 0.825 ± 0.053 mM
  Vmax: 152 ± 16 pmols µg protein^−1 min^−1
